Experimental findings from patent US20260167731A1 (DOMAIN THERAPEUTICS, published 2026) are described below.

Where “and” joins values, the source holds several entries; their conditions need not be identical. Equal values may be shown once.

The target in experiment [1] is T1, human CCR8 (human, UniProt P51685 1-355). Put plainly: cell-based or functional assay.
Experiment [2] concerns the target T1, human CCR8. Put plainly: cell-based or functional assay. This is another data set of the same source.
Experiment [3] deals with T1, human CCR8. Description: flow cytometry, HUT78 cells (endogenous CCR8). On the procedure:
The same staining protocol was applied on human CCR8 transfected CHO cell line versus wild type CHO cell line, cutaneous T cell lymphoma HUT78 cell line and human activated T cell model.
Briefly, 1·10⁵ cells per well in a 96 well plate were incubated with a dilution of unconjugated anti-CCR8 mAb at 10 μg/mL then diluted at 1/3.33, 4 dilution points (during 30 min at 4° C.). In human activated T cells model, prior to mAb incubation, cells were first incubated with 200 nM of hCCL1 (R&D Systems, Minneapolis, MN, USA) or buffer PBS (Invitrogen by Thermofisher Scientific, Illkirch-Graffenstaden, France) supplemented by 2% Fetal Bovine Serum (Invitrogen by Thermofisher Scientific, Illkirch-Graffenstaden, France) and 2 mM EDTA (Invitrogen by Thermofisher Scientific, Illkirch-Graffenstaden, France) during 1 hour at 4° C. To determine EC50 value, 8 concentrations of anti-CCR8 mAb were tested. Unbound antibodies were washed away with PBS (Invitrogen by Thermofisher Scientific, Illkirch-Graffenstaden, France) supplemented by 2% Fetal Bovine Serum (Invitrogen by Thermofisher Scientific, Illkirch-Graffenstaden, France) and 2 mM EDTA (Invitrogen by Thermofisher Scientific, Illkirch-Graffenstaden, France). Subsequently, cells are centrifuged (5 min at 400 g) and bound antibody is detected with F(ab′)₂-Goat anti-Mouse IgG (H+L) Cross-Adsorbed Secondary Antibody, Alexa Fluor 488 (dilution 1/500) (Invitrogen by Thermofisher Scientific, Illkirch-Graffenstaden, France) or with F(ab′)₂-Goat anti-Human IgG Fc Secondary Antibody, PE (Invitrogen by Thermofisher Scientific, Illkirch-Graffenstaden, France) (dilution 1/1000) at 4° C. for 30 min. Detection reagent is washed away and cells are centrifuged (5 min at 400 g) and resuspended in 30 μL PBS. Bound detection antibody is quantified on a MacsQuant16 (Miltenyi, Gladbach, Germany) (B1 or B2 channel, 5000 events per acquisition). During the experiment, the respective isotype mAb controls (mouse IgG1, mouse IgG2a, mouse IgG2b, mouse IgG3 or human IgG1) (Biolegend, Amsterdam, The Netherlands) are included to exclude any unspecific binding events.
EC50 values were determined via nonlinear fit “log(agonist)vs.response−Variable slope (four parameters)” function of Graphpad prism. EC50 values were not constantly determined in the same experiments.

The target of experiment [4] is pm5, modified CCR8 related peptide (human, sulfated tyrosines at Y15 and Y17). Put plainly: ELISA on coated CCR8 peptide (500 ng/mL), OD [cont.]. The method, then: (§1) The specific binding properties of antibodies were evaluated by ELISA with coated CCR8 related peptides (500 ng/mL) in carbonate/bicarbonate buffer. Different peptides were used as described in Table 1 (see Example 1). Each anti-CCR8 mAb was tested at 1 μg/mL then diluted at 1/10. After an incubation at room temperature during 90 min, unbound mAbs were removed by washings. […] After washings, 3,3′,5,5′-tetramethylbenzidine (TMB) (Interchim, Montlugon, France) was added for 15 min. Then the optical density (OD) was determined by using a multiplate reader (Tecan, Lyon, France) and correlated with mAb reactivity on the panel of coated peptides.
Chain of pm5, modified CCR8 related peptide (human, sulfated tyrosines at Y15 and Y17) (peptide, as listed by the source): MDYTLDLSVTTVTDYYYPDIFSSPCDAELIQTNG

Experiment [5] deals with pm6, modified CCR8 related peptide (human, sulfated tyrosines at Y16 and Y17). The experiment is described as above. On the procedure: as §1
Chain of pm6, modified CCR8 related peptide (human, sulfated tyrosines at Y16 and Y17) (peptide, as listed by the source): as above
In experiment [6] the target is pm8, modified CCR8 related peptide (human, sulfated tyrosines at Y15, Y16 and Y17). The experiment is described as above. On the procedure: as §1
Chain of pm8, modified CCR8 related peptide (human, sulfated tyrosines at Y15, Y16 and Y17) (peptide, as listed by the source): as above
For experiment [7], the target named is T2, pwt1, unmodified CCR8 related peptide (human, none (non-sulfated Y15, Y16, Y17)).
T2 construct: First 34 amino acids of human CCR8, synthetic; also called unmodified peptide
T2 sequence (peptide, as listed by the source): as above
The description is as above. On the procedure: as §1

Experiment [8] has as its target pm1, modified CCR8 related peptide (human, sulfated tyrosine at Y15). The description is as above. On the procedure: as §1
Experiment [9] concerns the target pm2, modified CCR8 related peptide (human, sulfated tyrosine at Y16). The experiment is described as above. On the procedure: as §1
Experiment [10] addresses pm3, modified CCR8 related peptide (human, sulfated tyrosine at Y17). The experiment is described as above. The method, then:
as §1

The target in experiment [11] is pm4, modified CCR8 related peptide (human, sulfated tyrosines at Y15 and Y16). The description is as above. On the procedure:
as §1

The target in experiment [12] is T3, hCCR8 SNAP-tag (human, UniProt P51685 1-355, SNAP-tag labelled with Lumi4-Terbium).
T3 construct: also called human CCR8 engineered with a SNAP-tag at the N-terminus; not shown: SNAP-tag at the N-terminus
Put plainly: HTRF Tag-lite, inhibition of hCCL1-AF647 binding to SNAP-tag hCCR8 on HEK-293. The method, then:
The inhibition of CCL1 binding to hCCR8 was evaluated with the Tag-Lite® technology from Cisbio (Revvity). Human CCR8 is engineered with a SNAP-tag at the N-terminus of the GPCR. hCCR8 SNAP-tag is transiently transfected on HEK-293 cell line using FuGene® (Promega, Madison, WI, USA). 48 hours after transfection, cells are labeled with the substrate Lumi4-Terbium® (Cisbio, Codolet, France) which covalently reacts with the SNAP-tag, for 1 h at 37° C. […] The Kd is previously obtained in a saturation binding assay on the same cells. […] The plate is next incubated at 21° C. for 2 h. Detection of HTRF signal is performed on the multiplate reader EnVision (PerkinElmer, Waltham, MA, USA). The HTRF (665/620) ratio is calculated by EnVision software, the data exported are considered as the total binding. The specific binding is calculated then by subtracting the non-specific signal from the total binding. The Ki and IC₅₀are calculated using the “One site—Fit Ki” and “One site—FitlogIC50” from GraphPad Prism 9 (Graphpad Software, San Diego, CA, USA), respectively.

Experiment [13] has as its target T3, hCCR8 SNAP-tag. Description: cell-based or functional assay.

Chain of pm4, modified CCR8 related peptide (human, sulfated tyrosines at Y15 and Y16) (peptide, as listed by the source): as above
Chain of pm1, modified CCR8 related peptide (human, sulfated tyrosine at Y15) (peptide, as listed by the source): as above
Chain of pm2, modified CCR8 related peptide (human, sulfated tyrosine at Y16) (peptide, as listed by the source): as above
Chain of pm3, modified CCR8 related peptide (human, sulfated tyrosine at Y17) (peptide, as listed by the source): as above

B1: humanized anti-CCR8 mAb 2-12 (antibody, human IgG1, kappa)
heavy: not shown
light: DIVMTQAAPSLSVTPGESASISCTSSKSLLHSNGNTYLYWFLQKPGQSPQLLIYRMSNLASGVPDRFSGSGSGTAFTLKISRVEAEDVGVYYCMQHREYPFTFGSGTKLEIKRTVAAPSVFIFPPSDEQLKSGTASVVCLLNNFYPREAKVQWKVDNALQSGNSQESVTEQDSKDSTYSLSSTLTLSKADYEKHKVYACEVTHQGLSSPVTKSFNRGEC
notes: Humanized, human IgG1 / kappa, produced in CHO
Consider B1, for which the “IC50, CCL1 induced hCCR8 Gi2 signaling (BRET, HEK-293)” value with human CCR8 [1] was 0.029 µg/mL and 0.194 nM. In the experiment with human CCR8 [2], the “hCCL1 (100 nM) residual response in %, Protocol #2, mAb 0.08 µg/mL ([…] nM)” value is 62%. For the same molecule, the “hCCL1 (100 nM) residual response in %, Protocol #2, mAb 0.4 µg/mL (2.67 nM)” value with human CCR8 [2] stood at 38%. The “hCCL1 (100 nM) residual response in %, Protocol #2, mAb 10 µg/mL (66.7 nM)” value with human CCR8 [2] turned out to be 30%. In addition, in the experiment with human CCR8 [2], the “hCCL1 (100 nM) residual response in %, Protocol #3, mAb 0.05 µg/mL (0.33 nM)” value worked out at 94%. Moreover, the “hCCL1 (100 nM) residual response in %, Protocol #3, mAb 0.5 µg/mL (3.33 nM)” value with human CCR8 [2] was 63%. Further, the “hCCL1 (100 nM) residual response in %, Protocol #3, mAb 5 µg/mL (33.3 nM)” value with human CCR8 [2] amounted to 39%. Also, the “% of labelled cells” value with human CCR8 [3] turned out to be 23%. In addition, the binding result in experiment [4], in experiment [5], in experiment [6], in [7], in experiment [8] and in experiment [9] was “binds” in each case. In addition, the binding result in experiment [10] and in [11] was “binds” each time. In the experiment with hCCR8 SNAP-tag [12], this molecule had an IC50 of 0.09 µg/mL. Also, the Ki in the experiment with hCCR8 SNAP-tag [12] was 0.05 µg/mL.

B2: humanized anti-CCR8 mAb 2-15 (antibody, human IgG1, kappa, V domains shown)
VH: QVQLQQSGPEVVKPGASVKVSCKTSGYTFTEYTIHWVRQSHGQSLEWVGGINPNNGNTRYDQKFKGRVTITIDKSSSTAYMELRSLTSEDTAVYYCARVARSSGSGPYAMDYWGQGTTVTVSS
VL: DVVMTQSPLSLPVTLGDQASISCRCSQSLLHTNGDTYLHWYLQRPGQSPRLLIYKVSNRFSGVPDRFSGSGSGTDFTLKISRVEAEDVGVYFCSQSTHVPYTFGGGTKVEIKR
notes: Humanized, human IgG1 / kappa
On to B2, for which the “IC50, CCL1 induced hCCR8 Gi2 signaling (BRET, HEK-293)” value with human CCR8 [1] is 0.034 µg/mL and 0.227 nM. Further, in the experiment with human CCR8 [2], the “hCCL1 (100 nM) residual response in %, Protocol #2, mAb 0.08 µg/mL ([…] nM)” value was determined as 77%; the “hCCL1 (100 nM) residual response in %, Protocol #2, mAb 0.4 µg/mL (2.67 nM)” value amounted to 66%; the “hCCL1 (100 nM) residual response in %, Protocol #2, mAb 10 µg/mL (66.7 nM)” value is 41%; the “hCCL1 (100 nM) residual response in %, Protocol #3, mAb 0.05 µg/mL (0.33 nM)” value came to 73%. Besides, in the experiment with human CCR8 [2], the “hCCL1 (100 nM) residual response in %, Protocol #3, mAb 0.5 µg/mL (3.33 nM)” value amounted to 52% and the “hCCL1 (100 nM) residual response in %, Protocol #3, mAb 5 µg/mL (33.3 nM)” value amounted to 37%. Further, in the experiment with hCCR8 SNAP-tag [13], the “% of internalization at 1 µg/ml (CCL1 at 300 nM = 100%), HTRF” value is 44% and the “% of internalization at 10 µg/ml (CCL1 at 300 nM = 100%), HTRF” value came to 36%. In addition, in the experiment with human CCR8 [3], the “% of labelled cells” value was 88% and the EC50 is 0.2 nM. For the same molecule, the binding result in experiment [4] is “binds”. The binding result in [5] was “binds”. The binding result in [6] is given as “binds”. Moreover, the binding result in experiment [7] was “binds”. Further, in [8], the binding result is listed as “binds”. Further, the binding result in [9] was “binds”. Besides, in experiment [10], the binding result was “binds”. Further, in [11], the binding result is recorded as “binds”. In the experiment with hCCR8 SNAP-tag [12], the IC50 stood at 0.04 µg/mL and the Ki worked out at 0.02 µg/mL.
